pIC50: −log10 of the molar value.
Experiments:
[1] = molecular target: F-actin (filamentous actin) (chicken) (UniProt P68139); experiment: co-sedimentation; F-actin bundling assay: G-actin in F-actin buffer (20 mM Tris-HCl pH 7.5, 100 mM KCl, 2 mM MgCl2, 1 mM EGTA, 1 mM DTT, 0.5 mM ATP) with or without ITPKA proteins, 20 min at RT, 10,000 g for 20 min at 4°C; about 1 µM F-actin, 0.5 µM ITPKA, 10-fold excess of ITPKA^L34P; supernatant and pellet on Coomassie-stained SDS-PAGE
[2] = molecular target: T1, ITPKA (Ins(1,4,5)P3-kinase-A) (Homo sapiens, UniProt P23677); experiment: coupled optical InsP3-kinase assay (pyruvate kinase/lactate dehydrogenase, NADH) with […] recombinant ITPKA; format: biochemical
T1 construct: expressed in bacteria as GFP-His-fusion protein, tags cleaved with TEV protease
T1 sequence (P23677 whole entry, the tested form may be a part): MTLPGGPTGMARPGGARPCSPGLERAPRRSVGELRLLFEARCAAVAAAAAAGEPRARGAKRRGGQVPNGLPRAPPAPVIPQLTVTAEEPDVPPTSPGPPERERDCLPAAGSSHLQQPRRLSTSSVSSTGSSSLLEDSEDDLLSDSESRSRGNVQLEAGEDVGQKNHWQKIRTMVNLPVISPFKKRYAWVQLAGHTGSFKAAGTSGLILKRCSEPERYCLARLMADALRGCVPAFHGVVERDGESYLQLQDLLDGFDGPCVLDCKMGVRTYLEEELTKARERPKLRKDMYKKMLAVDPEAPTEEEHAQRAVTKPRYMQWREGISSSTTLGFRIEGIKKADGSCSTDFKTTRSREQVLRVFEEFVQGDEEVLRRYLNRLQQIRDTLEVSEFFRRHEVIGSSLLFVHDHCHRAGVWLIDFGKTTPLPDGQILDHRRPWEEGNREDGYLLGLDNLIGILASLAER

Chain of Ins(1,4,5)P3-kinase-A (ITPKA), wild type (P23677 whole entry): as the sequence (P23677 whole entry, the tested form may be a part) above

Compound	percent of F-actin bundled [1] [%]	pIC50 [2]
Ins(1,4,5)P3-kinase-A (ITPKA), wild type (from UniProt P23677 1-461) (enzyme)	60	
C[C@@H]1CN(Cc2cn[nH]c2-c2ccc(C#N)cc2)CCN1c1ccc(C(F)(F)F)cn1 [GNF362]		7.77

From paper PMC9912108, “The actin bundling activity of ITPKA mainly accounts for its migration-promoting effect in lung cancer cells” (Bioscience Reports, 2023)
